# B1: angiogenin: bovine milk protein, known as a tumor angiogenesis factor, eluted from SP-Sepharose column (protein, UniProt P10152 24-148, looked up)
# Angiogenin-1: AQDDYRYIHFLTQHYDAKPKGRNDEYCFNMMKNRRLTRPCKDRNTFIHGNKNDIKAICEDRNGQPYRGDLRISKSEFQITICKHKGGSSRPPCRYGATEDSRVIVVGCENGLPVHFDESFITPRH
# B2: human lactoferrin: human lactoferrin, Cat No. SIGL6793, SIGMA; called human neutrophil-derived lactoferrin (protein, UniProt P02788 20-710, looked up)
# Lactotransferrin: GRRRSVQWCAVSQPEATKCFQWQRNMRKVRGPPVSCIKRDSPIQCIQAIAENRADAVTLDGGFIYEAGLAPYKLRPVAAEVYGTERQPRTHYYAVAVVKKGGSFQLNELQGLKSCHTGLRRTAGWNVPIGTLRPFLNWTGPPEPIEAAVARFFSASCVPGADKGQFPNLCRLCAGTGENKCAFSSQEPYFSYSGAFKCLRDGAGDVAFIRESTVFEDLSDEAERDEYELLCPDNTRKPVDKFKDCHLARVPSHAVVARSVNGKEDAIWNLLRQAQEKFGKDKSPKFQLFGSPSGQKDLLFKDSAIGFSRVPPRIDSGLYLGSGYFTAIQNLRKSEEEVAARRARVVWCAVGEQELRKCNQWSGLSEGSVTCSSASTTEDCIALVLKGEADAMSLDGGYVYTAGKCGLVPVLAENYKSQQSSDPDPNCVDRPVEGYLAVAVVRRSDTSLTWNSVKGKKSCHTAVDRTAGWNIPMGLLFNQTGSCKFDEYFSQSCAPGSDPRSNLCALCIGDEQGENKCVPNSNERYYGYTGAFRCLAENAGDVAFVKDVTVLQNTDGNNNEAWAKDLKLADFALLCLDGKRKPVTEARSCHLAMAPNHAVVSRMDKVERLKQVLLHQQAKFGRNGSDCPDKFCLFQSETKNLLFNDNTECLARLHGKTTYEKYLGPQYVAGITNLKKCSTSPLLEACEFLRK
# What was measured:
# human neutrophils [1] = experiment: Specificity experiment: inhibition of NETs formation by DNA concentration in the culture supernatant; type: cell-based; conditions: n=3, p<0.01, FIG. 10
# Description: About 1 hour after the isolation of the neutrophils described in “1. Method of isolating human neutrophils” in Example 2, the neutrophils were pre-treated. On an 8-well microslide (Cat. No. ib 80826 Ibidi (registered trademark)), the neutrophils were seeded in 400 μl of culture DMEM+2% human serum Alb (serum human albumin; Product No. A9080 Sigma+4 mM L-glutamine) at a rate of about 1.0×10^5 cells/well, and stimulated with PMA (final concentration: 25 nM, stock: 10 mM in DMSO, Sigma Prod No. P8139). At thirty minutes before the stimulation, and at every one hour or every two hours after the stimulation, 200 μg/ml of human lactoferrin (stock: 100 mg/ml, 200 μl; Cat. No. SIGL6793, SIGMA) was added to perform inhibition [FIG. 2].
# The culture supernatant was recovered and centrifuged at 200×g for 10 minutes, and the supernatant was transferred to a new microscopic centrifuge tube. The DNA amount was measured by use of Picogreen dsDNA assay reagent (P11496 Invitrogen) in accordance with an accompanying protocol. Treatment with human lactoferrin at one hour and two hours after the stimulation was a similar effect to the prior pre-treatment, the DNA concentration in the culture supernatant decreased, resulting in suppression of the release of the DNAs by the NETs [FIG. 2]. […]
# [2] = bovine proteins; cited from earlier work
# human neutrophils [3] = experiment: Scanning electron microscopy of neutrophils stimulated to form NETs; type: cell-based; conditions: pre-treatment 200 μg/ml, 3 hours after stimulation
# Description: The observation by a scanning electron microscope was performed as follows. Eosinophil granulocytes were seeded on a glass cover or a glass bottom dish for cell culture in the number of 1×10^6 and pre-treated with 200 μg/ml of human lactoferrin or were not pre-treated before stimulation for NETs. Three hours later, the sample was pre-immobilized with 0.1 M phosphoric acid buffer (pH: 7.4) containing 2% glutaraldehyde at 4° C. for 1 hour. Next, the sample was post-immobilized with 0.1 M phosphoric acid buffer (pH: 7.4) containing 1% osmium tetroxide at 4° C. for 1 hour. After the immobilization, the sample was washed with 60% ethanol, with 70% ethanol, with 80% ethanol and with 95% ethanol while being gently shaken for 5 to 10 minutes, and immersed twice in 100% ethanol for 5 to 10 minutes to be dehydrated. Critical point drying was performed by substitution with isoamyl acetate for 10 to 15 minutes. The sample were covered with a layer of sublimated osmium tetroxide by use of an osmium plasma coating device (OPC80N, Filgen, Inc.) and observed by a scanning electron microscope (JSM-6320F, JEOL, Ltd.). In the case where the neutrophils were not stimulated, the neutrophils were kept spherical and no extracellular fiber was recognized. In the case where the neutrophils were stimulated with PMA, the cells were broken and many fiber components were formed.
# human neutrophils [4] = experiment: Rate of NETs formation in PMA-stimulated neutrophils after pre-treatment, counted by confocal microscopy; type: cell-based
# human neutrophils [5] = experiment: DNA concentration in the culture supernatant (Picogreen) after pre-treatment; type: cell-based; conditions: pre-treatment 2, 20, 200 μg/ml, 3 hours after stimulation; FIG. 1-D
# human neutrophils [6] = experiment: DNA concentration in the culture supernatant, lactoferrin added after PMA stimulation; type: cell-based; conditions: p<0.001
# Description: From heathy volunteer, 15 ml to 20 ml of peripheral blood was sampled for one cycle of experiment with an EDTA-containing syringe (needle: 18 to 22 G). After the blood sampling, 3 ml of mono-poly resolving medium (Cat No. DSBN100, DS Pharma Biomedical Co., Ltd.) contained in 15 ml conical tube, and then 3.5 ml of the whole blood were gently stacked in the lower-layer mono-poly resolving medium. The 15 ml conical tube was centrifuged at room temperature (15 to 30° C.) at 400×g for 20 minutes by a swing-type centrifuge, and then the conical tube was taken out gently. A brown plasma layer in the top layer and a lymphocyte/monocyte layer immediately below the brown plasma layer were removed by an aspirator or the like. A transparent layer below the lymphocyte/monocyte layer was removed as much as possible. A pale pink layer below the transparent layer was taken out by a Pasteur pipette. […]
# The culture supernatant was recovered and centrifuged at 200×g for 10 minutes, and the supernatant was transferred to a new microscopic centrifuge tube. The DNA amount was measured by use of Picogreen dsDNA assay reagent (P11496 Invitrogen) in accordance with an accompanying protocol. […]
molecule,measurement,setting,value
B1,inhibition of the formation of the NETs,human neutrophils [1],Neither lactoperoxidase nor angiogenin inhibited
same,Isoelectric point,[2],9.5
B2,fiber components of the NETs by scanning electron microscope,human neutrophils [3],form such fiber components in bundles
same,"rate of the NETs formed at plateau, compared with stimulation merely with PMA","human neutrophils [4]; pre-treatment 2 μg/ml for 30 minutes, then PMA 25 nM",half
same,"rate of the NETs formed at plateau, compared with stimulation merely with PMA","human neutrophils [4]; pre-treatment 20 μg/ml for 30 minutes, then PMA 25 nM",half
same,"formation of the NETs at plateau, compared with stimulation merely with PMA","human neutrophils [4]; pre-treatment 200 μg/ml for 30 minutes, then PMA 25 nM",¼
same,release of the DNAs to the outside of the cells (SYTOX green images),"human neutrophils [4]; pre-treatment 200 μg/ml, FIG. 1-C",inhibited
same,inhibitory effect on the formation of the NETs,"human neutrophils [4]; pre-treatment with 2, 20 or 200 μg/ml, FIG. 1-A, 1-B",observed similarly to the bovine lactoferrin
same,DNA concentration in the culture supernatant,human neutrophils [5],decreased in a concentration-dependent manner
same,DNA concentration in the culture supernatant,human neutrophils [6]; 200 μg/ml added one hour after PMA stimulation,decreased
same,DNA concentration in the culture supernatant,human neutrophils [6]; 200 μg/ml added two hours after PMA stimulation,decreased
